Experimental data from US12497446B2, “Tetranectin-targeting monoclonal antibodies to fight against lethal sepsis and other pathologies” (The Feinstein Institutes For Medical Research, priority 2019, dated 2025).

T1: HMGB1 (Rattus norvegicus, UniProt P63159)
T1 construct: made in house; host or cells: E. coli BL21 (DE3) pLysS
T1 sequence (P63159 1-215): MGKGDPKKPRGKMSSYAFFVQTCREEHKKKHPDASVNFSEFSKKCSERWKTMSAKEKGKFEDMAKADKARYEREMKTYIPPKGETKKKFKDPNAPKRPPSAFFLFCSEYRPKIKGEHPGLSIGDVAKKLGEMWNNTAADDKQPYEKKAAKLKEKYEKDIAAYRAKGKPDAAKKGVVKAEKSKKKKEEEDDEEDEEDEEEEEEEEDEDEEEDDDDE


How the values were obtained:
[1] = test system: Balb/C mice subjected to CLP sepsis; assay: Animal model of lethal sepsis (CLP), animal survival; type: in vivo, mouse; conditions: for protection against lethal sepsis: i.p., 2 h post onset
Experimental: This study was conducted in accordance with policies of the NIH Guide for the Care and Use of Laboratory Animals and approved by the IACUC of the Feinstein Institute for Medical Research, Manhasset, New York, USA. To evaluate the role of TN in lethal sepsis, Balb/C mice (male, 7-8 weeks, 20-25 g) were subjected to lethal endotoxemia or sepsis induced by cecal ligation and puncture (CLP) as previously described. Briefly, the cecum of Balb/C mice was ligated at 5.0 mm from the cecal tip, and then punctured once with a 22-gauge needle. At 30 min post CLP, all animals were given a subcutaneous dosing of imipenem/cilastatin (0.5 mg/mouse) (Primaxin, Merck & Co., Inc., West Point, Pa.), and resuscitation with normal sterile saline solution (20 ml/kg). Recombinant TN or anti-TN polyclonal or monoclonal IgGs were intraperitoneally administered into endotoxemic or septic mice at indicated doses and time points, and animal survival rates were monitored for up to two weeks. To evaluate the role of TN in lethal sepsis, a few breeding pairs of the heterozygous TN (also called “CLCE3B”)-KO mice were obtained from the Jackson Laboratory (Stock No. 027554, Bar Harbor, ME, USA), and bred to produce homozygous TN KO as well as wild-type littermates. Age- and sex-matched wild-type (WT) or TN knockout (KO) C57/B6 mice were then used to induce CLP sepsis via identical procedures, and animal survival rates were compared for more than two weeks.

[2] = test system: Balb/C mice subjected to lethal endotoxemia; assay: Animal model of lethal endotoxemia (LPS), animal survival; type: in vivo, mouse; conditions: i.p., 2 h post onset
Experimental: This study was conducted in accordance with policies of the NIH Guide for the Care and Use of Laboratory Animals and approved by the IACUC of the Feinstein Institute for Medical Research, Manhasset, New York, USA. To evaluate the role of TN in lethal sepsis, Balb/C mice (male, 7-8 weeks, 20-25 g) were subjected to lethal endotoxemia or sepsis induced by cecal ligation and puncture (CLP) as previously described. Briefly, the cecum of Balb/C mice was ligated at 5.0 mm from the cecal tip, and then punctured once with a 22-gauge needle. At 30 min post CLP, all animals were given a subcutaneous dosing of imipenem/cilastatin (0.5 mg/mouse) (Primaxin, Merck & Co., Inc., West Point, Pa.), and resuscitation with normal sterile saline solution (20 ml/kg). Recombinant TN or anti-TN polyclonal or monoclonal IgGs were intraperitoneally administered into endotoxemic or septic mice at indicated doses and time points, and animal survival rates were monitored for up to two weeks. To evaluate the role of TN in lethal sepsis, a few breeding pairs of the heterozygous TN (also called “CLCE3B”)-KO mice were obtained from the Jackson Laboratory (Stock No. 027554, Bar Harbor, ME, USA), and bred to produce homozygous TN KO as well as wild-type littermates. […]

HMGB1 = target: T1, HMGB1; assay: OpenSPR assay of TN/HMGB1 interaction; type: binding; conditions: TN or HMGB1 conjugated to the sensor chip
Text: The cDNA encoding for rat HMGB1 was cloned onto a pCAL-n vector, and the recombinant CBP-HMGB1 (rHMGB1) was expressed in E. coli BL21 (DE3) pLysS cells as previously described. Recombinant HMGB1 containing a ˜3 kDa calmodulin-binding peptide tag (CBP-HMGB1 fusion protein, 33 kDa) was expressed in E. coli, and purified to remove contaminating endotoxin by Triton X-114 extraction as previously described. Recombinant human TN corresponding to residue 22-202 amino acid (without the 21-amino acid leader signal sequence) with a C-terminal histidine tag were expressed in E. coli BL21 (DE3) pLysS cells and purified by histidine-affinity and Triton X-114 extraction to remove contaminating endotoxins. Recombinant TN and HMGB1 proteins were tested for LPS content by the chromogenic Limulus amebocyte lysate assay (Endochrome; Charles River), and the endotoxin content was less than 0.01 U per microgram of recombinant proteins.
We employed the Nicoya Lifesciences gold-nanoparticle-based Open Surface Plasmon Resonance (OpenSPR) technology (Kitchener, ON, Canada) to characterize protein-protein interactions following the manufacturer's instructions. […] The response units were recorded over time, and the binding affinity was estimated as the equilibrium dissociation constant KD using the Trace Drawer Kinetic Data Analysis v.1.6.1. […]

[3] = test system: Balb/C mice subjected to CLP sepsis; assay: Sepsis-induced tissue injury (lung histology, serum liver enzymes) after CLP; type: in vivo, mouse; conditions: TN supplementation, 2 and 24 h post CLP
[4] = test system: murine peritoneal macrophages; assay: LPS- or SAA-induced HMGB1 release in murine macrophages; type: cell-based, mouse; conditions: 16 h
Experimental: (§1) Primary peritoneal macrophages were isolated from young male Balb/c (7-8 wks, 20-25 g) at 3 days after intraperitoneal injection of 2 ml thioglycollate broth (4%) as previously described. Briefly, mice were sacrificed by CO2 asphyxiation, and the abdomen region was immediately cleaned with 70% ethanol before making a small excision to expose the abdominal wall, and to insert a catheter into viscera-free pocket to wash out peritoneal macrophages with sucrose solution (11.6%, 7.0 ml). […] The intracellular and extracellular levels of HMGB1, TN, or various other cytokines/chemokines were respectively determined by Western blotting analysis, and Cytokine Antibody Arrays as previous described.
(§2) The levels of TN in human or murine serum were determined by Western blotting analysis using commercial rabbit mAb against the C-terminus of human TN (Abcam) or our home-made murine mAbs (mAb8) against recombinant human TN. Similarly, the cellular and extracellular levels of TN and HMGB1 in murine macrophage and human monocyte cultures were determined by Western blotting analysis using rabbit polyclonal or monoclonal antibodies. […] The relative band intensity was quantified using the UN-SCAN-IT Gel Analysis Software Version 7.1 (Silk Scientific Inc., Orem, UT, USA).

human blood monocytes = assay: LPS- or SAA-induced HMGB1 release in human monocytes; type: cell-based; conditions: 16 h
Experimental: as §1, §2

macrophage cultures = assay: Cytokine Antibody Array of macrophage cultures; type: cell-based, mouse; conditions: even at 20 μg/ml
Experimental: (§3) Primary peritoneal macrophages were isolated from young male Balb/c (7-8 wks, 20-25 g) at 3 days after intraperitoneal injection of 2 ml thioglycollate broth (4%) as previously described. Briefly, mice were sacrificed by CO2 asphyxiation, and the abdomen region was immediately cleaned with 70% ethanol before making a small excision to expose the abdominal wall, and to insert a catheter into viscera-free pocket to wash out peritoneal macrophages with sucrose solution (11.6%, 7.0 ml). Human blood was purchased from the New York Blood Center (Long Island City, NY, USA), and human peripheral blood mononuclear cells (HuPBMCs) were isolated by density gradient centrifugation through Ficoll (Ficoll-Paque PLUS, Pharmacia, Piscataway, NJ, USA) as previously described. Murine macrophages and human monocytes (HuBPMCs) were cultured in DMEM supplemented with 1% penicillin/streptomycin and 10% FBS or 10% human serum. When reaching 70-80% confluence, adherent cells were gently washed with, and immediately cultured in, OPTI-MEM I before stimulating with crude LPS, purified SAA, HMGB1, in the absence or presence of human TN. The intracellular and extracellular levels of HMGB1, TN, or various other cytokines/chemokines were respectively determined by Western blotting analysis, and Cytokine Antibody Arrays as previous described. […]

primary human monocytes = assay: Cytokine Antibody Array of human monocyte cultures; type: cell-based; conditions: TN 10 μg/ml, 16 h
Experimental: as §3

[5] = test system: Murine macrophage-like RAW 264.7 cells; assay: Cellular HMGB1 and TN uptake; type: cell-based, mouse; conditions: TN at physiological concentrations, 2 h
Experimental: Highly purified recombinant HMGB1 and TN protein were labeled with either Alexa Fluor 555 or Alexa Fluor 488 using respective labeling kit (Cat. # A30007 or Cat. # A30006, Thermo Fisher Scientific) according to the manufacturer's instructions. Murine macrophage-like RAW 264.7 cells on cover slips were incubated with unlabeled or Alexa Fluor 555-labeled HMGB1 in the absence or presence of unlabeled or Alexa Fluor 488-labeled TN at 37° C. for 2 h. An endocytosis inhibitor, Dynasore (8.0 μM), or mAb8 (60 μg/ml) were added 30 min before the addition of HMGB1 or TN. Following extensive washings with 1×PBS, cells were fixed with 4% formalin for 20 min at room temperature and mounted on the slide using Vectashield Mounting Medium for Fluorescence with DAPI (Vector Laboratories, Inc., Cat. # H-1200) for nuclei staining (blue). Endocytic uptake of Alexa Fluor 555-labeled HMGB1 (red) or Alexa Fluor 488-labeled TN (green) was visualized via Carl Zeiss fluorescence microscope. To quantitate cellular uptake of HMGB1 and TN, macrophage cultures were incubated with recombinant HMGB1 and TN either individually, or in combination, at 37° C. for 2 h. Following extensive washing, cellular levels of HMGB1 and TN were measured by Western blotting analysis with reference to a house-keeping protein, β-actin.

[6] = test system: murine peritoneal macrophages; assay: ASC release in macrophage cultures (Western blotting); type: cell-based, mouse; conditions: 16 h
Experimental: as §1, §2

| Molecule | protection in sepsis at sub-physiological doses ([1]; 0.1 mg/kg) | protection in sepsis at super-physiological doses ([1]; 1.0 mg/kg) | protection against lethal sepsis [1] | protection against lethal endotoxemia [2] | estimated equilibrium disassociation constant (KD) between TN and HMGB1 (HMGB1) [nM] | sepsis-induced injury in the liver ([3]; ALT and AST at 28 h) | sepsis-induced injury in the lung ([3]; analysis at 28 h) | LPS- and SAA-induced HMGB1 release [4] | LPS- and SAA-induced HMGB1 release (human blood monocytes) | LPS-, SAA-, or HMGB1-induced release of other cytokines and chemokines (macrophage cultures) | release of ENA-78 (CXCL5, LIX) (primary human monocytes) | release of GRO (CXCL1 or KC) (primary human monocytes) | HMGB1 cellular uptake [5] | ASC release, added individually [6] | ASC release, co-addition with HMGB1 [6] |
| --- | --- | --- | --- | --- | --- | --- | --- | --- | --- | --- | --- | --- | --- | --- | --- |
| murine TN: prokaryotes-derived (E. coli) recombinant murine tetranectin (protein) ESPTPKAKKAANAKKDLVSSKMFEELKNRMDVLAQEVALLKEKQALQTVCLKGTKVNLKCLLAFTQPKTFHEASEDCISQGGTLGTPQSELENEALFEYARHSVGNDANIWLGLNDMAAEGAWVDMTGGLLAYKNWETEITTQPDGGKAENCAALSGAANGKWFDKRCRDQLPYICQFAIV | conferred reproducible protection | not associated with any protective effect | reproducible and dose-dependent protection | reproducible and dose-dependent protection |  |  |  |  |  |  |  |  |  |  |  |
| human TN: eukaryote-derived recombinant human tetranectin expressed in HEK293 kidney cells (ACROBiosystems) (protein, UniProt P05452 22-202, looked up) Tetranectin: EPPTQKPKKIVNAKKDVVNTKMFEELKSRLDTLAQEVALLKEQQALQTVCLKGTKVHMKCFLAFTQTKTFHEASEDCISRGGTLGTPQTGSENDALYEYLRQSVGNEAEIWLGLNDMAAEGTWVDMTGARIAYKNWETEITAQPDGGKTENCAVLSGAANGKWFDKRCRDQLPYICQFGIV |  |  | reproducible and dose-dependent protection | reproducible and dose-dependent protection |  |  |  |  |  |  |  |  |  |  |  |
| tetranectin (protein, UniProt P05452 22-202, looked up) Tetranectin: EPPTQKPKKIVNAKKDVVNTKMFEELKSRLDTLAQEVALLKEQQALQTVCLKGTKVHMKCFLAFTQTKTFHEASEDCISRGGTLGTPQTGSENDALYEYLRQSVGNEAEIWLGLNDMAAEGTWVDMTGARIAYKNWETEITAQPDGGKTENCAVLSGAANGKWFDKRCRDQLPYICQFGIV |  |  |  |  | 1.21 to 2.88 | marked attenuation | marked attenuation | dose-dependently inhibited | dose-dependently inhibited | did not inhibit | reproducibly and specifically induced the release | reproducibly and specifically induced the release | markedly enhanced | weakly induced | synergistic enhancement |
